Experiments:
[1] = tested on: NF-κB-dependent gene expression; assay: NF-κB luciferase gene reporter assay in inducible PC12 cells expressing mutant HDx1; assay type: cell-based
Text: Gene Reporter and transfections. The pNF-κB-luciferase with five enhanced elements and the control plasmid without NF-κB binding sites, pCIS-CK luciferase, were used for gene reporter assays (Strategene, La Jolla, Calif.). To normalize for transfection efficiency between samples, a β-galactosidase (β-gal) construct expressed from the EF-1α promoter (Invitrogen, Carlsbad, Calif.), was included in all gene reporter assays. PC12 cells were transfected with control or NF-κB-luciferase plasmids using lipofectamine-plus. On the following day, cells were left untreated or stimulated for 8 hr with 1 μg/ml ecdysone to induce expression of HDx1. […] Luciferase activity was measured by addition of the substrate (Promega, Madison, Wis.) to equal amounts of protein from each sample. […] All gene reporter assays were corrected for transfection efficiency by normalizing the units if β-gal in the extracts, using the β-gal assay (Invitrogen). β-gal values from the samples were divided by the β-gal value from control, 25polyQ, noninduced PC12 cells (no expression of HDx1) and multiplied by each corresponding luciferase reading. […]
Gene Reporter and transfections. […] Protein concentration was determined by the BCA method (Pierce, Rockford, Ill.). […] Bound p65 was detected with a goat anti-rabbit antibody conjugated to horseradish peroxidase. […]

[2] = tested on: PC12 cells expressing mutant HDx1; assay: Mutant HDx1 toxicity in PC12 cells treated with IKK inhibitor; assay type: cell-based; details: Example 5
Protocol: To examine the effects of a small molecule IKK inhibitor on mutant Htt toxicity, PC12 cells expressing mutant HDx1 are treated with herbimycin or another known IKK inhibitor plus β-gal and NF-κB reporter in six-well plates, essentially as described above in Example 4.

[3] = biological target: T1, IKKβ subunit (Homo sapiens, UniProt O14920); details: Ogino et al., Mol. Pharmacol. 2004; cited from earlier work
T1 sequence (O14920 1-756): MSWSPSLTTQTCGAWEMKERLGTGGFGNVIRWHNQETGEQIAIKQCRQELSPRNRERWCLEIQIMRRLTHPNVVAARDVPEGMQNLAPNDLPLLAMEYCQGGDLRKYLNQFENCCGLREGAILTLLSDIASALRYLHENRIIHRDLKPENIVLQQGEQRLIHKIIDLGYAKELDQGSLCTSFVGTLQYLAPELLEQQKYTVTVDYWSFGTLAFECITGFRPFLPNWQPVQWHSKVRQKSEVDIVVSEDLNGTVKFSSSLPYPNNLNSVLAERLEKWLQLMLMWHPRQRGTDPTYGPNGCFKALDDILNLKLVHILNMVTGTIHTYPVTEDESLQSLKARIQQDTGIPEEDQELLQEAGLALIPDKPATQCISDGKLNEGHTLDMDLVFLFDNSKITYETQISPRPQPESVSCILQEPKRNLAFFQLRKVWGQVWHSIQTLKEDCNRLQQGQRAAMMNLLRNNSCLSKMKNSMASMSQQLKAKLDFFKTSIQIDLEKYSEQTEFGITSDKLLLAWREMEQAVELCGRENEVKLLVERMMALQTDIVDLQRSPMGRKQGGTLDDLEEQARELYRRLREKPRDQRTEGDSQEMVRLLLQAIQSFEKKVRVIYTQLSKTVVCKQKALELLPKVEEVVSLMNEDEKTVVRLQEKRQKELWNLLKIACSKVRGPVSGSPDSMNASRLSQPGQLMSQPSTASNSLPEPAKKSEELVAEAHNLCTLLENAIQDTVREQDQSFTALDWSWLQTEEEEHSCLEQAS

[4] = tested on: HEK-293 cells; assay: Mutant HDx1 toxicity in transfected HEK-293 cells (count of condensed GFP-positive bodies); assay type: cell-based, Human; details: 48 hr after transfection
Protocol: (§1) Transfection of HEK-293 cells with mutant HDx1-EGFP alone (Kasantsev et al., 1999) or with one of the following constructs, full-length (F), DN, and deleted C terminus (DC) of IKKγ (provided by Dr. E. Zandi, University of Southern California) Rothwarf et al., 1998) or ΔF-βTrCP, was done using lipofectamine-plus reagents (Invitrogen). For histochemistry, cultured cells were fixed in 4% paraformaldehyde for 30 min, permeabilized with 70% methanol for 1 hr., and washed with PBS. Cells were stained with anti-HA for IKKγ or anti-myc for ΔF-βTrCP (Cell Signaling, Beverly, Mass.) followed by a goat anti-mouse antibody conjugated by Alexa 594 (Molecular Probes, Eugene, Oreg.). Toto-3, a dimeric cyanine, was used to stain nuclei (Molecular Probes). […] Mutant HDx1 toxicity was assessed by counting the number of condensed GFP-positive bodies, which are remnants of […] deoxynucleotidyl transferase-mediated biotinylated UTP nick endlabeling (TUNEL)-positive (TUNEL^+) cells (Khoshnan et al., 2002), using a florescence microscope. […] Apoptotic cells were labeled with terminal deoxynucleotidyl transferase using digoxigenin-labeled nucleotides and detected by anti-digoxigenin antibody and rhodamine-conjugated secondary according to the instructions provided by the manufacturer (Chemicon, Temecula, Calif.).

[5] = tested on: striatal MSNs; assay: Brain slice neurodegeneration assay (biolistic transfection of MSNs with HDx1); assay type: cell-based; details: P7 rat brain slices; for effect on MSNs expressing WT HDx1: coexpression with WT HDx1; for neurodegeneration / toxicity of mutant HDx1 in MSNs: coexpression with mutant HDx1, 7 d
Protocol: Brain slice preparation. All animal experiments were performed in accordance with the Institutional Animal Care and Use Committee and Duke University Medical Center Animal Guidelines. Postnatal day 7 (P7) CD Sprague Dawley rats (Charles River Laboratory, Raleigh, N.C.) were decapitated, and the brains were surgically removed and placed in ice-cold Neurobasal medium (Invitrogen). The tissue was fixed to a chilled, stainless steel Vibratome stage using cyanoacrylate glue (Krazy-Glue) and covered with Neurobasal medium. Coronal brain slices (250 μm thick) were cut by Vibratome (VT1000S; Leica, Nusslock Germany) as described previously (Edgerton and Reinhart, 2003). Brain slices were kept at 37° C. in 5.0% CO2 for 1 hr.
Bolistic transfection. Gold particles (1.6 μm gold microcarriers; BioRad, Hercules, Calif.) were used as DNA carriers for transfection as described previously (Lo et al., 1994). Briefly, gold particles were sonicated in 0.05 M spermidine in the presence of plasmid DNA. The gold-DNA mixture was washed three times in 100% ethanol before being loaded into Helios plastic cartridges (Bio-Rad) according to manufacturer's instructions. Slices were transfected using a Bio-Rad Helios gun with a cyan fluorescent protein (CFP)-tagged Htt fragment, together with yellow fluorescent protein (YFP) as a morphometric marker. In a number of experiments, one of the IKKγ constructs was also cotransfected with the Htt-construct and YFP. CFP-tagged Htt fragments were exon-1-N-terminal fragments containing either a short-Q (Q23) or a long-Q (Q148) polyQ domain.
Brain slice neurodegeneration assay. For each condition, transfections were performed on […] brain slices per experiment. Protein expression and neurodegeneration (loss of processes, shriveling of the soma) were assay 2-7 d after transfection using a Leica fluorescence microscope with appropriate filters for YFP and CFP. The total area of the striatum was identified, and transfected MSNs were identified by their morphology. CFP fluorescence was used to determine expression of Htt fragments and their aggregation into macro-inclusions. Each experiment involved three to twelve transfected brain slices per condition, and the data are means from six independent experiments for each condition.

[6] = tested on: mutant HDx1; assay: Confocal examination of mutant HDx1 aggregation in HEK-293 cells; assay type: cell-based, Human; details: early time point before widespread toxicity
Protocol: as §1

[7] = tested on: HEK-293 cells; assay: TUNEL staining of HEK-293 cells transfected with mutant HDx1; assay type: cell-based, Human; details: HEK-293 cells cotransfected with mutant HDx1
Protocol: as §1

[8] = biological target: T2, GST-HDx1 (Homo sapiens, UniProt P42858, INS38QQQQQQQQQQQQQQQQQQQQQQQQQQQQQQ); assay: GST pull-down binding of in vitro-translated IKKγ constructs to GST-HDx1; details: [35S] methionine-labeled construct, GST-HDx1 with expanded polyQ
T2 construct: GST-HDx1 with 20 or 51 polyQs, with and without polyproline domains, was obtained from Dr. E. Wanker; made in house; host or cells: Escherichia coli
Protocol: Protein-protein interaction. In vitro binding of IKKγ to mutant HDx1 was performed using glutathione S-transferase (GST)-pull down assays. GST-HDx1 with 20 or 51 polyQs, with and without polyproline domains, was obtained from Dr. E. Wanker (Max Plank Institute, Berlin, Germany). These constructs were expressed in Escherichia coli and purified with glutathione beads (Amersham Biosciences, Piscataway, N.J.) according to manufacturer's instructions. IKKγ constructs were transcribed and translated in rabbit reticulocytes in the presence of [^35S] methionine (Promega). Briefly, 5 μg of GST-HDx1 bound to beads was incubated with 10 μl of each labeled in vitro-translated IKKγ produce in 500 μl of Tris-based buffer containing 10% glycerol and 6 mM DTT and rocked at room temperature for 2 hr. Beads were washed five times in the same buffer. Bound IKKγ was examined by SDS-PAGE, followed by autoradiography. Recombinant anti-HDx1 intrabodies (Khoshnan et al., 2002) were expressed and examined similarly from binding to GST-HDx1. For competition assays, 10-fold excess in vitro-translated intrabodies were added to GST-HDx1 plus deleted C terminus IKKγ and processed as above.

T2 sequence (P42858 with tags, fused parts or gaps with the stated changes): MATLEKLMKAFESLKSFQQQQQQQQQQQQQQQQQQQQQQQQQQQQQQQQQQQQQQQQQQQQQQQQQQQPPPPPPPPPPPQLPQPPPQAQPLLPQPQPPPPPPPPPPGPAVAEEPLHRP

Molecule: CO[C@H]1[C@@H](OC)C[C@H](C)[C@@H](OC)C2=CC(=O)C=C(NC(=O)/C(C)=C/C=C\[C@H](OC)[C@@H](OC(N)=O)/C(C)=C/[C@@H]1C)C2=O [Herbimycin, Herbimycin A]
- NF-κB expression ([1]; PC12 cells expressing mutant HDx1, Example 5): reduce NF-κB expression
- toxicity of mutant HDx1 in cultured cells [2]: blocks the toxicity
- NF-κB activation [3]: abrogates NF-κB activation

Molecule: IKKγ: full-length regulatory subunit of the IKK complex, expressed from a construct
- toxicity of mutant HDx1 (condensed GFP+ bodies) [4]: little effect on toxicity
- effect on MSNs expressing WT HDx1 [5]: no obvious effect
- neurodegeneration / toxicity of mutant HDx1 in MSNs [5]: no significant effect on neurodegeneration
- aggregation of mutant HDx1 [6]: promotes aggregation of mutant HDx1

Molecule: WT-βTrCP: wild-type E3-ubiquitin ligase βTrCP
- neurodegeneration / toxicity of mutant HDx1 in MSNs [5]: does not influence the toxicity of mutant HDx1 in MSNs

B1: DN-IKKγ: IKKγ with the first 134 amino acids removed; N-terminally truncated form that interferes with IKK activity (protein, UniProt Q9Y6K9 135-419, looked up, fragment)
chain: MAEDKASVKAQVTSLLGELQESQSRLEAATKECQALEGRARAASEQARQLESEREALQQQHSVQVDQLRMQGQSVEAALRMERQAASEEKRKLAQLQVAYHQLFQEYDNHIKSSVVGSERKRGMQLEDLKQQLQQAEEALVAKQEVIDKLKEEAEQHKIVMETVPVLKAQADIYKADFQAERQAREKLAEKKELLQEQLEQLQREYSKLKASCQESARIEDMRKRHVEVSQAPLPPAPAYLSSPLALPSQRRSPPEEPPDFCCPKCQYQAPDMDTLQIHVMECIE
- mutant HDx1-induced NF-κB-dependent gene expression ([1]; PC12 cells, ecdysone-induced HDx1, with or without NGF): blocks basal and NGF-induced NF-κB-dependent gene expression
- toxicity of mutant HDx1 (condensed GFP+ bodies) [4]: strongly reduces the toxicity of mutant HDx1
- number of TUNEL+ cells [7]: significantly reduced
- effect on MSNs expressing WT HDx1 [5]: no obvious effect
- neurodegeneration / toxicity of mutant HDx1 in MSNs [5]: significantly neuroprotective
- aggregation of mutant HDx1 [6]: no apparent effect on HDx1 aggregation
- binding of IKKγ construct to HDx1 [8]: diminishes binding to HDx1

From patent US7803758B2, “I kappa B kinase complex as a target for the treatment of Huntington's disease” (California Institute of Technology, priority 2004, dated 2010)
